Data from patent US20020111475A1 (IMMUNEX, published 2002).
One block for each binder: values may come before it.

Assays:
[1] = biological target: T1, human flt3 on BAF/hflt3 cells (BAF-BO3 cells transfected with human flt3 cDNA) (human, UniProt P36888 27-993); test: cell-based or functional assay
T1 sequence (looked up): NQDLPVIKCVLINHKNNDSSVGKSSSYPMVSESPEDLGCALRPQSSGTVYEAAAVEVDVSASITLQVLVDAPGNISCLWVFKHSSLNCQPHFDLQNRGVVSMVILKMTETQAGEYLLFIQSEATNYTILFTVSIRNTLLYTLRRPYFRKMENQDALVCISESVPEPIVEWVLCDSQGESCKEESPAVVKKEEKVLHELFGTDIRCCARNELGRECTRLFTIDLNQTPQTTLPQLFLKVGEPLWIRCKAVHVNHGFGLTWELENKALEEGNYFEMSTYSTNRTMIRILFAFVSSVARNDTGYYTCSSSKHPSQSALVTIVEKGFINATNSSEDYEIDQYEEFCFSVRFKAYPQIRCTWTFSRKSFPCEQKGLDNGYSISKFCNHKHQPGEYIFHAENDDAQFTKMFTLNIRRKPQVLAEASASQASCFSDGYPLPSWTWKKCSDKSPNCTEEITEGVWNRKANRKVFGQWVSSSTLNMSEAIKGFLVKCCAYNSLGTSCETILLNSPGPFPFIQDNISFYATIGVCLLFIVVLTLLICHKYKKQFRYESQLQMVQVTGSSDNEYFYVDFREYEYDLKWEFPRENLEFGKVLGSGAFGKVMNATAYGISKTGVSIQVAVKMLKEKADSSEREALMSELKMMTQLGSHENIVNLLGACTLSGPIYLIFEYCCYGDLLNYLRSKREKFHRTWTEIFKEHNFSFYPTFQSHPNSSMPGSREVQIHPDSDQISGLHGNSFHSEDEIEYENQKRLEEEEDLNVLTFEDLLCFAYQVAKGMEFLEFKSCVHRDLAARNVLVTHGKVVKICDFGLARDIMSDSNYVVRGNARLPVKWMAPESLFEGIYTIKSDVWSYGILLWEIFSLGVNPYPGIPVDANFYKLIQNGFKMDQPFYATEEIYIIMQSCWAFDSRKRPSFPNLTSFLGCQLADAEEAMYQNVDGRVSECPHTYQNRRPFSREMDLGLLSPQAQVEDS

[2] = biological target: T1, human flt3 on BAF/hflt3 cells (BAF-BO3 …); test: inhibition of 125I-flt3-L binding to BAF/hflt3 cells, purified protein
Experimental: Binding assays were performed using a phthalate oil separation method as described previously for murine ¹²⁵I-GM-CSF (Park et al., J. Biol. Chem. 261:4177-4183 (1986)). Briefly, BAF-BO3 cells transfected with human flt3 cDNA (0.5-1×10⁶) were incubated with serial dilutions of ¹²⁵I-flt3-L in binding medium (RPMI 1640, 2.5% bovine serum albumin, 0.2% NaN3, 20 mM Hepes, pH 7.2) in 96 well microtiter plates maintained on a mini-orbital shaker (Bellco) at 37° C. for 90 minutes. Inhibition binding assays were carried out by holding the radiolabeled flt3-L concentration constant at 0.3 nM, while the concentration of unlabeled competitor proteins ranged from 150 nM to 0.001 nM. The ratio of Kdi of mutant to wild type flt3-L, determined in at least duplicate, in a given assay was averaged over at least three independent assays and the standard error of the mean (SEM) reported. […] For this assay, cells expressing human flt3 (BAF/hflt3 cells) were constructed from BAF/B03 cells, using a procedure previously described for producing BAF/B03 cells expressing the murine flt3 (Lyman et al., Cell 75:1157-1167 (1993)). Expression of human flt3 by BAF/hflt3 cells was confirmed by examining the capacity of the cells to proliferate in response to soluble flt3-L, and by flow cytometric analysis using biotinylated flt3-L.
^aThe specific activity of purified mutant or wild type protein was determined by taking the ratio of proliferation activity in BAF/hflt3 cells (units/ml) to concentration of flt3-L protein as determined by amino acid composition (ng/ml). The ratio of specific activity of mutant to wild type flt3-L is averaged over three independent assays, and the standard error of the mean (SEM) is reported. ^bThe Kdifor wild type protein is 61 ± 19 pM (n = 2). The ratio of Kₐᵢ of mutant to wild type flt3-L is averaged over two independent assays and the standard deviation is reported.

[3] = biological target: T1, human flt3 on BAF/hflt3 cells (BAF-BO3 …); test: direct binding of serial dilutions of 125I-flt3-L to BAF-BO3 cells transfected with human flt3, 37 C, phthalate oil separation (n=7)
Experimental: (§1) Binding assays were performed using a phthalate oil separation method as described previously for murine ¹²⁵I-GM-CSF (Park et al., J. Biol. Chem. 261:4177-4183 (1986)). Briefly, BAF-BO3 cells transfected with human flt3 cDNA (0.5-1×10⁶) were incubated with serial dilutions of ¹²⁵I-flt3-L in binding medium (RPMI 1640, 2.5% bovine serum albumin, 0.2% NaN3, 20 mM Hepes, pH 7.2) in 96 well microtiter plates maintained on a mini-orbital shaker (Bellco) at 37° C. for 90 minutes. Inhibition binding assays were carried out by holding the radiolabeled flt3-L concentration constant at 0.3 nM, while the concentration of unlabeled competitor proteins ranged from 150 nM to 0.001 nM. The ratio of Kdi of mutant to wild type flt3-L, determined in at least duplicate, in a given assay was averaged over at least three independent assays and the standard error of the mean (SEM) reported. […]
(§2) The ordinate is the Log¹⁰ of the value relative to wild type flt3-L, and the abscissa is the flt3-L mutant designation. […] The ratio of Kₐᵢ mutant to wild type flt3-L, determined in at least duplicate, in a given assay is averaged over at least three independent assays and the standard error of the mean (SEM) is reported.

[4] = biological target: T1, human flt3 on BAF/hflt3 cells (BAF-BO3 …); test: Kdi: inhibition by unlabelled flt3-L of 0.3 nM 125I-flt3-L binding to BAF-BO3 cells transfected with human flt3 (n=7)
Experimental: as §1, §2

[5] = biological target: T1, human flt3 on BAF/hflt3 cells (BAF-BO3 …); test: Kdi: inhibition of 125I-flt3-L binding to BAF/hflt3 cells, the assays of Table 3
[6] = biological target: T1, human flt3 on BAF/hflt3 cells (BAF-BO3 …); test: Kdi: inhibition of binding of radiolabelled yeast-derived flt3-L to BAF-BO3 cells transfected with human flt3
Experimental: as §1
Specific activity of purified mutant or wild type protein was calculated as the ratio of proliferation activity in BAF/hflt3 cells (units/ml) to concentration of flt3-L protein as determined by amino acid composition (ng/ml). The ratio of specific activity of mutant to wild type flt3-L, determined in duplicate, in a given assay was averaged over at least three independent assays and the standard error of the mean (SEM) is reported. […]

Sp.Ac. MUT / Sp.Ac. Wt (BAF/hflt3 cell proliferation units/ml per ng/ml purified protein) [1]: 1 ratio to wild type
Kai MUT / Kai Wt [2]: 1 ratio to wild type
Kd [3]: 0.13 nM
Ki [4]: 0.09 nM
Ki [5]: 0.061 nM
B1: wild type flt3-L (yeast-derived recombinant human flt3 Ligand) (ligand)
chain: LSGTQDCSFQHSPISSDFAVKIRELSDYLLQDYPVTVASNLQDEELCGGLWRLVLAQRWMERLKTVAGSKMQGLLERVNTEIHFVTKCAFQPPPSCLRFVQTNISRLLQETSEQLVALKPWITRQNFARCLELQCQPDSSTLPPPWSPRPLEATAP
notes: Secreted from yeast (alpha-factor leader, final plasmid PIXY797); Leu-Ser-Gly stands before Thr1 of the mature protein (80% of chains; 20% begin at Ser); Noncovalent dimer (dimer peak collected); also called WT; 125I-flt3-L (radiolabelled form)

Ki [6]: 0.08 nM
B2: recombinant CHO-derived human flt3-L, which has native human sequence (ligand)
chain: TQDCSFQHSPISSDFAVKIRELSDYLLQDYPVTVASNLQDEELCGGLWRLVLAQRWMERLKTVAGSKMQGLLERVNTEIHFVTKCAFQPPPSCLRFVQTNISRLLQETSEQLVALKPWITRQNFSRCLELQCQPDSSTLPPPWSPRPLEATAPTAPQP
